Measured values as given in patent publication US8551717B2, “Method for determining sumoylation” (Medizinische Hochschule Hannover, priority 2008, dated 2013).

Assays:
Type in all cases: cell-based
[1] = target: T1, U-CSNK2B (Homo sapiens, UniProt P63279+P67870); assay: Trans-SUMOylation by U-CSNK2B; set-up: key: (++), strong TransSUMOylation; (+), TransSUMOylation; (+/−) weak TransSUMOylation; (−) no detectable TransSUMOylation; conditions: protein 2 construct coexpressed with U-CSNK2B and EGFP-SUMO1 in HEK293, western blot
T1 construct: expressed in transfected cells; host or cells: HEK293
Source text: To identify new SUMOylation substrates and to study the function of SUMOylation the Ubc9/substrate dimerisation-dependent SUMOylation system (USDDS) was developed which consists of fusions of the SUMOylation substrate and of the SUMO-conjugating enzyme Ubc9 to the chemically activatable heterodimerisation domains FKBP and FRB, respectively, as shown in FIG. 2. When the substrate protein fused to FKBP is coexpressed with Ubc9-FRB, treatment of HEK293 cells with the rapamycin-related dimerizer AP21967 induces SUMOylation of the substrate protein fused to FKBP at its specific SUMOylation site. […] Dependent on an EcoRl site in the coding sequence, seven C-terminal amino acids of the human STAT1a in the STAT1-FKBP/FRB fusion proteins are missing. For the SUMOylation analysis HEK293 (human embryonic kidney cells) cells have been used. HEK293 cells were cultured in Dulbecco's modified Eagle's medium with high glucose, complemented with 10% fetal calf serum, 2 mM L-glutamine, 100 U/ml penicillin and […] streptomycin. We performed transfection of HEK293 cells using the polyethylenimine transfection reagent. HEK293 cells of a fresh confluent 10 cm plate were transferred on a 12-well plate. After 12-24 h incubation about 70% cell confluence is reached. For each well 45 μl of serum/antibiotic free DMEM medium is mixed with 750 ng of the transfection-purity expression vector DNA (all together 47 μl) and vortexed. Then, 3 μl of vortexed polyethylenimin stock solution (1 mg/ml) is added and the mixture is vortexed. After incubation at room temperature for 10 min 450 μl fresh DMEM with antibiotics is added to the mixture and vortexed. The medium on the cells was then completely removed and immediately, the 500 μl transfection mix was added carefully to each well. […]
(§1) As shown above, the SUMOylation of a protein of interest can be induced by the heterodimerisation with a binding protein fused to Ubc9. […] Therefore the protein pairs were coexpressed with EGFP-SUMO1 in HEK293 cells and after 24h the transfectants were lysed and the protein extracts were analyzed in western blots. […]

[2] = target: T2, MK2-U (Homo sapiens, UniProt P49137+P63279); assay: Trans-SUMOylation by MK2-U; conditions: protein 2 construct coexpressed with MK2-U and EGFP-SUMO1 in HEK293
T2 construct: expressed in transfected cells; host or cells: HEK293

[3] = target: T3, U-MK2 (Homo sapiens, UniProt P49137+P63279); assay: Trans-SUMOylation by U-MK2; conditions: protein 2 construct coexpressed with U-MK2 and EGFP-SUMO1 in HEK293
T3 construct: expressed in transfected cells; host or cells: HEK293

[4] = target: T4, U-MK5 (Homo sapiens, UniProt P63279+Q8IW41); assay: Trans-SUMOylation by U-MK5; set-up: key: (++), strong TransSUMOylation; (+), TransSUMOylation; (+/−) weak TransSUMOylation; (−) no detectable TransSUMOylation; conditions: protein 2 construct coexpressed with U-MK5 and EGFP-SUMO1 in HEK293, western blot
T4 construct: expressed in transfected cells; host or cells: HEK293
Source text: To identify new SUMOylation substrates and to study the function of SUMOylation the Ubc9/substrate dimerisation-dependent SUMOylation system (USDDS) was developed which consists of fusions of the SUMOylation substrate and of the SUMO-conjugating enzyme Ubc9 to the chemically activatable heterodimerisation domains FKBP and FRB, respectively, as shown in FIG. 2. When the substrate protein fused to FKBP is coexpressed with Ubc9-FRB, treatment of HEK293 cells with the rapamycin-related dimerizer AP21967 induces SUMOylation of the substrate protein fused to FKBP at its specific SUMOylation site. […] Dependent on an EcoRl site in the coding sequence, seven C-terminal amino acids of the human STAT1a in the STAT1-FKBP/FRB fusion proteins are missing. For the SUMOylation analysis HEK293 (human embryonic kidney cells) cells have been used. HEK293 cells were cultured in Dulbecco's modified Eagle's medium with high glucose, complemented with 10% fetal calf serum, 2 mM L-glutamine, 100 U/ml penicillin and […] streptomycin. We performed transfection of HEK293 cells using the polyethylenimine transfection reagent. HEK293 cells of a fresh confluent 10 cm plate were transferred on a 12-well plate. After 12-24 h incubation about 70% cell confluence is reached. For each well 45 μl of serum/antibiotic free DMEM medium is mixed with 750 ng of the transfection-purity expression vector DNA (all together 47 μl) and vortexed. Then, 3 μl of vortexed polyethylenimin stock solution (1 mg/ml) is added and the mixture is vortexed. After incubation at room temperature for 10 min 450 μl fresh DMEM with antibiotics is added to the mixture and vortexed. The medium on the cells was then completely removed and immediately, the 500 μl transfection mix was added carefully to each well. The 12 well plate was rocked to ensure a proper distribution of the DNA/transfection reagent complex. After an incubation of the cells for 24 h at a 37° C. in a humidified CO2-incubator (5%) the cells were lysed in 150 μl Laemmli (2×) gel loading buffer (160 mM Tris-HCL, pH 6.8, 4% (w/v) sodium dodecyl sulphate (SDS), 20% (v/v) glycerol, 0.5% β-mercaptoethanol (v/v), 0.008% (w/v) bromophenol blue) and incubated for 10 min at 95° C. For western blot analysis the proteins were separated by SDS-PAGE, blotted on a PVDF membrane and developed with specific primary antibodies (α-Ubc9 (H81, Santa Cruz), α-pY701-STAT1 (Tyr701, Cell Signaling), α-STAT1 (Cell Signaling), α-p53 (1C12, Cell Signaling), α-SUMO1 (Cell Signaling), a horseradish peroxidase (HRP)-conjugated secondary antibody (different companies), the ECL+ (Amersham) or Immobilon™ Western (Millipore) and the LAS-3000 imaging system (Fuji).
As shown above, the SUMOylation of a protein of interest can be induced by the heterodimerisation with a binding protein fused to Ubc9. To find out if Trans-SUMOylation is useful for the characterisation of common protein interactions, protein binding pairs well known from the literature or found in two hybrid screens. […] Therefore the protein pairs were coexpressed with EGFP-SUMO1 in HEK293 cells and after 24h the transfectants were lysed and the protein extracts were analyzed in western blots.
Protein-protein interactions described in the cited references were tested for Trans-SUMOylation. Each specific protein-protein interaction was tested by coexpression of different combinations of protein 1 fused to Ubc9 (U) with protein 2 mostly fused two a tag (HA, FLAG, Myc, GST, ST). (++), strong TransSUMOylation; (+), TransSUMOylation; (+/−) weak TransSUMOylation; (−) no detectable TransSUMOylation; (MEKK1ca) the activated MAP3 kinase MEKK1, that can enhance protein SUMOylation, was coexpressed.
Protein-protein interaction of each pair of protein 1/protein 2 was tested by coexpression of different combinations of a protein 1 fused to Ubc9 (U) with protein 2 mostly fused two a Tag (HA, FLAG, GST, ST). […]

[5] = target: T5, p53-U (Homo sapiens, UniProt P04637+P63279); assay: Trans-SUMOylation by p53-U; conditions: western blot
T5 construct: expressed in transfected cells; host or cells: HEK293

[6] = target: T6, JUN-U (Homo sapiens, UniProt P05412+P63279); assay: Trans-SUMOylation by JUN-U; conditions: protein 2 construct coexpressed with JUN-U and EGFP-SUMO1 in HEK293, western blot
T6 construct: expressed in transfected cells; host or cells: HEK293

[7] = target: T7, U-p38α (Homo sapiens, UniProt P63279+Q16539); assay: Trans-SUMOylation by U-p38α; conditions: protein 2 construct coexpressed with U-p38α and EGFP-SUMO1 in HEK293
T7 construct: expressed in transfected cells; host or cells: HEK293

[8] = target: T8, U-PSMC3 (Homo sapiens, UniProt P17980+P63279); assay: Trans-SUMOylation by U-PSMC3; set-up: key: (++), strong TransSUMOylation; (+), TransSUMOylation; (+/−) weak TransSUMOylation; (−) no detectable TransSUMOylation; conditions: protein 2 construct coexpressed with U-PSMC3 and EGFP-SUMO1 in HEK293; western blot; Table 1
T8 construct: expressed in transfected cells; host or cells: HEK293
Source text: To identify new SUMOylation substrates and to study the function of SUMOylation the Ubc9/substrate dimerisation-dependent SUMOylation system (USDDS) was developed which consists of fusions of the SUMOylation substrate and of the SUMO-conjugating enzyme Ubc9 to the chemically activatable heterodimerisation domains FKBP and FRB, respectively, as shown in FIG. 2. When the substrate protein fused to FKBP is coexpressed with Ubc9-FRB, treatment of HEK293 cells with the rapamycin-related dimerizer AP21967 induces SUMOylation of the substrate protein fused to FKBP at its specific SUMOylation site. […] Dependent on an EcoRl site in the coding sequence, seven C-terminal amino acids of the human STAT1a in the STAT1-FKBP/FRB fusion proteins are missing. For the SUMOylation analysis HEK293 (human embryonic kidney cells) cells have been used. HEK293 cells were cultured in Dulbecco's modified Eagle's medium with high glucose, complemented with 10% fetal calf serum, 2 mM L-glutamine, 100 U/ml penicillin and […] streptomycin. […]
as §1

[9] = target: T9, CSNK2B-U (Homo sapiens, UniProt P63279+P67870); assay: Trans-SUMOylation by CSNK2B-U; conditions: protein 2 construct coexpressed with CSNK2B-U and EGFP-SUMO1 in HEK293, Table 1
T9 construct: expressed in transfected cells; host or cells: HEK293

[10] = protein 2 construct coexpressed with P53-U (p53-U) and EGFP-SUMO1 in HEK293, Table 1
[11] = MEKK1ca (Table 1B: MEKK1) coexpressed, Table 1
[12] = protein 2 construct coexpressed with p53-U and EGFP-SUMO1 in HEK293, Table 2

T6 sequence (P05412+P63279 fused): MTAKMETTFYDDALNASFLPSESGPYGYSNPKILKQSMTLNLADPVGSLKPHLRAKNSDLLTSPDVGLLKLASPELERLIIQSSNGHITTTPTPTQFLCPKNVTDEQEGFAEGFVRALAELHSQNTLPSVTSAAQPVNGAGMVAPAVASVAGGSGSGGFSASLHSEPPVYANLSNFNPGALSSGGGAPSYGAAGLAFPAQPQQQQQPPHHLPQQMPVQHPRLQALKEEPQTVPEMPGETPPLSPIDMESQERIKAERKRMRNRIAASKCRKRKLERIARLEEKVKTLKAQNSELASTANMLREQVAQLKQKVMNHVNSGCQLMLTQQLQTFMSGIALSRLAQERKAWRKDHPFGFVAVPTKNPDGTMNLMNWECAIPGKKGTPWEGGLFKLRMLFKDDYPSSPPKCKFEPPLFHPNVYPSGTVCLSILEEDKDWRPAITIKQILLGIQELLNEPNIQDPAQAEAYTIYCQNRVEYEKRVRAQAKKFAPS
T3 sequence (P63279+P49137 fused): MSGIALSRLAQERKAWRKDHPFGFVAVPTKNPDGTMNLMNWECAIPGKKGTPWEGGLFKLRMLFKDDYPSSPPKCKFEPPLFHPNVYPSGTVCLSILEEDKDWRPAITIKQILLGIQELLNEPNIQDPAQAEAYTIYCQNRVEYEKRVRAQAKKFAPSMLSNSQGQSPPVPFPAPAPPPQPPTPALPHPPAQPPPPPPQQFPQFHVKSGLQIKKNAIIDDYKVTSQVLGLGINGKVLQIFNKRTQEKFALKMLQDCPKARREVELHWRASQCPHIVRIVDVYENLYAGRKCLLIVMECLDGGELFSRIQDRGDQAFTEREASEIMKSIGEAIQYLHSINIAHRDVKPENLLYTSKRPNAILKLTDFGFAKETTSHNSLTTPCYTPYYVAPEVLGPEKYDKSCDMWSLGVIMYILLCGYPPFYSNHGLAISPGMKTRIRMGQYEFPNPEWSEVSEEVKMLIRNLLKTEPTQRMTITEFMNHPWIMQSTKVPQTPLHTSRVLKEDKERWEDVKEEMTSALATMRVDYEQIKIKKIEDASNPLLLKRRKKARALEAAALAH
T2 sequence (P49137+P63279 fused): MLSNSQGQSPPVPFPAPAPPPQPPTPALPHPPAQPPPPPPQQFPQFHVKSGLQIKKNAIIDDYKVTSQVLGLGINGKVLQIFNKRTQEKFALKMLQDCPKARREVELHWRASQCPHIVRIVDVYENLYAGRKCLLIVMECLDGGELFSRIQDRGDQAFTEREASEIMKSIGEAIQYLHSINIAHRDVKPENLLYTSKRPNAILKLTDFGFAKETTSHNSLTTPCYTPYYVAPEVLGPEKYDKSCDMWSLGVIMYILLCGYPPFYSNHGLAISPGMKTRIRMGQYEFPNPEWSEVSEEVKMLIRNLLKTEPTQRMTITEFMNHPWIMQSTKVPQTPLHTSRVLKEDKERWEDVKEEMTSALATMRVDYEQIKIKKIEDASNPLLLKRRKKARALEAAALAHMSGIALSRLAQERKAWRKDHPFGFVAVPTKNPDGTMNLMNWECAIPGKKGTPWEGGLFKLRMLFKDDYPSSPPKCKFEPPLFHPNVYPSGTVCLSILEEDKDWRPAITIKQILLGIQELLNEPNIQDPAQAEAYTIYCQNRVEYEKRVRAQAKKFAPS
T1 sequence (P63279+P67870 fused): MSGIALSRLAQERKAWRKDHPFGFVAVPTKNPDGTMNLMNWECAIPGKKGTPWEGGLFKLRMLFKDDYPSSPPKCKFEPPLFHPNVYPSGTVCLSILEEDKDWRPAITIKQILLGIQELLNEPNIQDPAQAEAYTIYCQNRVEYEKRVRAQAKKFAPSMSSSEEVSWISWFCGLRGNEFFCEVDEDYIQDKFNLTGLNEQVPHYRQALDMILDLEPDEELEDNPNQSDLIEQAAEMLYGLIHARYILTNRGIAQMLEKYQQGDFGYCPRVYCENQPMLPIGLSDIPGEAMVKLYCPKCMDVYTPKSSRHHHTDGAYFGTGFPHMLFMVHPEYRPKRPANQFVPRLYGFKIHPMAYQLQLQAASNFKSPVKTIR
T4 sequence (P63279+Q8IW41 fused): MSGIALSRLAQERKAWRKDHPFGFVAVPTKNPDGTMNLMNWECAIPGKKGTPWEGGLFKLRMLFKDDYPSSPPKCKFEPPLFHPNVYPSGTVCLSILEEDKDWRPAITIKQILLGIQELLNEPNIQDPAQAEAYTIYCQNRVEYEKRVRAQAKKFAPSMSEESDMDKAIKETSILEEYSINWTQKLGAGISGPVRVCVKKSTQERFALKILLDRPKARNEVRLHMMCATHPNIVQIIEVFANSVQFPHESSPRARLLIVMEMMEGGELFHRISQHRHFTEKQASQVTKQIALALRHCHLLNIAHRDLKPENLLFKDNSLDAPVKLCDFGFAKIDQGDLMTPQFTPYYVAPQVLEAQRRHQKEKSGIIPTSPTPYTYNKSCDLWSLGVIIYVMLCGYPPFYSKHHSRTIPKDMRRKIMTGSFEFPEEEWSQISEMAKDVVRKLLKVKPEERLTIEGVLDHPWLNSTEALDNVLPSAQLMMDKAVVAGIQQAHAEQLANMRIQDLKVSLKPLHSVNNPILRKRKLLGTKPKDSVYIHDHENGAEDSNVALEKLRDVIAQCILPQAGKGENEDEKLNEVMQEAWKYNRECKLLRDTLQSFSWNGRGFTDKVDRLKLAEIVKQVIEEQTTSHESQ
T7 sequence (P63279+Q16539 fused): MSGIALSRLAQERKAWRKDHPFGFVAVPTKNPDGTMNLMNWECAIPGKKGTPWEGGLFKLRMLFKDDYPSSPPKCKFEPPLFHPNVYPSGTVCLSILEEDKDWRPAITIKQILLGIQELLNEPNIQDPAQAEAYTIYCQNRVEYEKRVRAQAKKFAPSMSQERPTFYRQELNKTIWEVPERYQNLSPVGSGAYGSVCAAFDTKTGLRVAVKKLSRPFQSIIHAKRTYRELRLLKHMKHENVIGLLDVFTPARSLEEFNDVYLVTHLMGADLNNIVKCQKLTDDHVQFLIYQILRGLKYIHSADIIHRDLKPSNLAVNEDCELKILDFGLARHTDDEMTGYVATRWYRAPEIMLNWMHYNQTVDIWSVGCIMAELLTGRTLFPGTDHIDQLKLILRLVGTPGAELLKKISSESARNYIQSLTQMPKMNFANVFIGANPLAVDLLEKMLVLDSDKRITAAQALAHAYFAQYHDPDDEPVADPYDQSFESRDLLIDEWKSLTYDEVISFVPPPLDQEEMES
T9 sequence (P67870+P63279 fused): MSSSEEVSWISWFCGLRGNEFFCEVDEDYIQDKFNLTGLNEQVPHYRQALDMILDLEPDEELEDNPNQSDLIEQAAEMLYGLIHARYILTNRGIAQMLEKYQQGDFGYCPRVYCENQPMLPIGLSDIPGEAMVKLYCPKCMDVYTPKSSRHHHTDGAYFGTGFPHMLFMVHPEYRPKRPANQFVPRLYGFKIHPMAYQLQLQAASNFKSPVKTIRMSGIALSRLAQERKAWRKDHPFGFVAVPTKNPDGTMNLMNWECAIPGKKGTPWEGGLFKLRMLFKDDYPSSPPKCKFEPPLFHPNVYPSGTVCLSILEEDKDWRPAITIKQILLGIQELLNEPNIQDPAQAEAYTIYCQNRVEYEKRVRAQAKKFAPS
T8 sequence (P63279+P17980 fused): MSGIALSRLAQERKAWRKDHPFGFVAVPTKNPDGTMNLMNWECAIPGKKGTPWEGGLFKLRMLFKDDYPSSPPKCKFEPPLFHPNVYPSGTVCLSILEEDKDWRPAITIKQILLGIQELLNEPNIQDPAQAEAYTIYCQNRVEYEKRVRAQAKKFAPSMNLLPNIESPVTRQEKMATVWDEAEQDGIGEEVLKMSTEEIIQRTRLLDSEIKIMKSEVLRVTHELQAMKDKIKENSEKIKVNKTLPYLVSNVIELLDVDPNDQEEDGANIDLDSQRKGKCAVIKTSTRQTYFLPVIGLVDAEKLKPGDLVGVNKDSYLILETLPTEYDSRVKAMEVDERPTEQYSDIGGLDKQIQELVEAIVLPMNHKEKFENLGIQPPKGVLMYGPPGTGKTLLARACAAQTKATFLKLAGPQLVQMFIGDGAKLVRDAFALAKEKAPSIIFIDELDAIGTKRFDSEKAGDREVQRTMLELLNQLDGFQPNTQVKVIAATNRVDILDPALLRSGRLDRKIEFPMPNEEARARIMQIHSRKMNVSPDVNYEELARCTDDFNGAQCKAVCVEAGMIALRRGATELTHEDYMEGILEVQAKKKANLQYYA

Row | Trans-SUMOylation [5, 10] | Trans-SUMOylation ([6]; Table 2) | Trans-SUMOylation ([2]; western blot, Table 2) | Trans-SUMOylation ([7]; western blot, Table 1) | Trans-SUMOylation ([3]; western blot, Table 2) | Trans-SUMOylation ([4]; Table 2) | Substance | other results
1 | − | − |  |  |  |  | FLAG-p38α: p38α fused to FLAG tag | Trans-SUMOylation ([1]; Table 1): −; Trans-SUMOylation ([2]; western blot, Table 1): +; Trans-SUMOylation ([3]; western blot, Table 1): +; Trans-SUMOylation ([4]; Table 1): +
2 |  | − | + | + | + | (+/−) | GST-MK2: MK2 fused to GST tag | Trans-SUMOylation ([1]; Table 2): (+/−); Trans-SUMOylation ([2]; MEKK1 coexpressed, Table 2): ++ (MEKK1); Trans-SUMOylation [7, 11]: ++ (MEKK1ca); Trans-SUMOylation ([3]; MEKK1 coexpressed, Table 2): ++ (MEKK1); Trans-SUMOylation [5, 12]: −
3 | + | − |  | + |  |  | HA-ERK2: ERK2 fused to HA tag | Trans-SUMOylation ([3]; western blot, Table 1): +
4 |  |  | − |  |  |  | GST-PSMC3: PSMC3 fused to GST tag | Trans-SUMOylation [8]: +
5 |  | − | + | + | − | + | Myc-MK2: MK2 fused to Myc tag | Trans-SUMOylation ([1]; Table 2): (+/−); Trans-SUMOylation ([2]; MEKK1 coexpressed, Table 2): + (MEKK1); Trans-SUMOylation [7, 11]: ++ (MEKK1ca); Trans-SUMOylation ([3]; MEKK1 coexpressed, Table 2): + (MEKK1); Trans-SUMOylation [5, 12]: −
6 |  |  |  |  |  |  | HA-CSNK2B: CSNK2B fused to HA tag | Trans-SUMOylation ([9]; MEKK1ca coexpressed): + (MEKK1ca)
7 | − |  |  |  | − | − | HA-JNK2: JNK2 fused to HA tag | Trans-SUMOylation ([7]; western blot, Table 2): −; Trans-SUMOylation ([6]; Table 1): −
8 |  |  |  |  | − |  | p53K386R-ST(377-391): p53K386R fused to SUMOylation site tag 377-391 | Trans-SUMOylation ([9]; western blot): +
